Publication PMC3585155, “CELF Family RNA–Binding Protein UNC-75 Regulates Two Sets of Mutually Exclusive Exons of the unc-32 Gene in Neuron-Specific Manners in Caenorhabditis elegans”
Where a chain is given by its changes, count along the chain named.

T1: ASD-1 (Caenorhabditis elegans, UniProt G5EEW7 1-404)
T1 sequence: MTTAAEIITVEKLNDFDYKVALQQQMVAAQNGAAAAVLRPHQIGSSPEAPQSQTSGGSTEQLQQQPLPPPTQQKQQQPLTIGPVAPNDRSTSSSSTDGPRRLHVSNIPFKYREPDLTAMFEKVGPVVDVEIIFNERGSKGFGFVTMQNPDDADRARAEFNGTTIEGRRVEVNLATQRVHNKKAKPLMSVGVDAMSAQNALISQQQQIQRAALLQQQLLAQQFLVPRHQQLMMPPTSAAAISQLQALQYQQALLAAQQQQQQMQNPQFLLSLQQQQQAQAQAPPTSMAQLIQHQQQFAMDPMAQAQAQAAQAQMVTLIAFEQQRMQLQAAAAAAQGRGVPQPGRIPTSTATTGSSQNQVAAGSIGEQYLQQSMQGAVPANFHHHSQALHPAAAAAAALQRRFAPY

T2: FOX-1 (Caenorhabditis elegans, UniProt Q10572 1-429)
T2 sequence: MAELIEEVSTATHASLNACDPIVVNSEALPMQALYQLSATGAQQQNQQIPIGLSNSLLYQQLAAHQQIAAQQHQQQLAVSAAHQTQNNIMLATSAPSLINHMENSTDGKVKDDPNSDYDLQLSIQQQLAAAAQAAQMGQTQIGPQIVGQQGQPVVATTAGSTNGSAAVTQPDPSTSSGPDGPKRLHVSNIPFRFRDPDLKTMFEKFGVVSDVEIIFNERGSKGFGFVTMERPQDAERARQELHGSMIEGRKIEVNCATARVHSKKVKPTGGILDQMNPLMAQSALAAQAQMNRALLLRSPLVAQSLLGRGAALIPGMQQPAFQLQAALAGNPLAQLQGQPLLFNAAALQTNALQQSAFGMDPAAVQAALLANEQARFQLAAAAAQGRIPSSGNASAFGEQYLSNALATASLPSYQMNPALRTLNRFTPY

B1: Probe 2-1-1 (also printed 2-2-1) (ssRNA)
RNA: GGGAGAUUAGCACGCACCCGCCUUCUACUGUCCCGUUACUUUUUGUUGUGUUGU
B2: Probe 2-1-1c (ssRNA)
RNA: B1 RNA with C25A, C28A, G30A
B3: Probe 2-1-1d (ssRNA)
RNA: B1 RNA with C32A, C33A, C34A, G35A, C39A
B4: Probe 2-1-1e (ssRNA)
RNA: B1 RNA with G45A, G48A, G50A, G53A
B5: Probe 2-1-1b (ssRNA)
RNA: B1 RNA with C17A, C18A, C19A, G20A, C21A, C22A
B6: Probe 2-1-1a (ssRNA)
RNA: B1 RNA with G10A, C11A, C13A, G14A, C15A
B7: intron 7b WT probe (ssRNA)
RNA: GGGAGAGGUGAUGGGUAGUUUUUGCAUGAUUGU

Assays:
Test in all cases: EMSA; EMSA as described previously (ref 55); buffer, salt, pH and temperature not given
Settings in all cases: protein: recombinant; tags: FLAG; label: 32P
UNC-75(1-114) RRM1 = UNC-75(1-114) RRM1 (Caenorhabditis elegans, UniProt G5EE68 1-114)
UNC-75(417-514) RRM3 = UNC-75(417-514) RRM3 (Caenorhabditis elegans, UniProt G5EE68 417-514)
UNC-75(L431F) = UNC-75(L431F) (Caenorhabditis elegans, UniProt G5EE68 1-514, L431F)
UNC-75(121-213) RRM2 = UNC-75(121-213) RRM2 (Caenorhabditis elegans, UniProt G5EE68 121-213)
UNC-75 = UNC-75 (Caenorhabditis elegans, UniProt G5EE68 1-514)
ASD-1 = molecular target: T1, ASD-1
FOX-1 = molecular target: T2, FOX-1

Binder	binding result (UNC-75(417-514) RRM3)	binding result (UNC-75)	also measured
B1	binds	binds	binding result (UNC-75(1-114) RRM1): no binding; binding result (UNC-75(L431F)): no binding; binding result (UNC-75(121-213) RRM2): no binding
B2	binds	binds	
B3	binds	binds	
B4	no binding	no binding	
B5	binds	binds	
B6	binds	binds	
B7			binding result (ASD-1): binds; binding result (FOX-1): binds
